We go through 74 sequences from the supplement of paper PMC12636428.

The data set has as its system Saccharomyces cerevisiae. Kind of data set: transcriptional activation domain activity (GFP:mCherry ratio, weighted mean of sorted bins, harmonized to initial dataset scale) (arbitrary fluorescence ratio units); higher = stronger transcriptional activation. To be noted: beta-estradiol 1 µM; induction time 4 h. In outline: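 Barcoded protein tiles fused to an estradiol-inducible synthetic transcription factor were integrated at the yeast URA3 locus, in diploids carrying a GFP reporter. Cultures were diluted 1:5 into SC with 1 uM beta-estradiol, held 4 hours at 30 °C, sorted into 8 bins by GFP:mCherry ratio, and barcodes sequenced. Tiles under 50 reads were discarded. Activation activity is the read-weighted mean of bin median fluorescence, averaged across barcodes, then linearly mapped onto the initial dataset scale.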
Consider “ASEAAVKEESASPAAKKSKKDKKPAKGSSDSVEAPVAEATPKTKKTAKANGAV”, for which the “transcriptional activation domain activity” value was 28000. Turning to “APPPPPPPPPPPPPPPSSSSAPSPSSTSAPPPPPPPPPPPPPPPGGGGPPPPP”, the “transcriptional activation domain activity” value amounted to 32900. On to “FIQLVHLWRLILNYGPTGPFNIRMPSHLTWVVIKQHIQQYFFRCLCLLNKDGA”, for which the “transcriptional activation domain activity” value is 49100.

As for “SYSLNTSLCQAFWHVTWRLTPPLAVFLPINPFLCLHLHFTCTLFFLLSLVMLQ”, the “transcriptional activation domain activity” value is 58400.

In the case of “LIWSCKLIWAAYLDMYRYHIYVLVSFEVVALLTWILTLLYGVPNLINLVYHAY”, the “transcriptional activation domain activity” value was 56300.

On to “DDLQQLLEDLGNIDHSDEKLWKEITDQAMWLGNTMDPTAAAGSEIDFTDYLGP”, for which the “transcriptional activation domain activity” value came to 144000. With “YILYMLRMSVRELTRSELLIVRLGRPTKLIIAGNWEINLLGIFVGLGIVCTEV” the figure was 59400.

Take “AANFHDTHGFGSMPQHLKKKPKAEGEGAGKAEEVKAEVSATAEAEESATAKAE”: the “transcriptional activation domain activity” value came out at 34800. On to “LQTYMRSLEWTILTCSVIEIIEKLKMAPENMHELSPLCVKLIIKFCLTEILSY”, for which the “transcriptional activation domain activity” value was 43400.

In the case of “LREGGVLAVDGTSVGSVEVIYSYSIVVHTRITFRVVARVGRCLVVCLVRWDFY”, the “transcriptional activation domain activity” value was 38200. With “QAARTSDYSIAQFRFLLKLLLVHGRWNYVRICKYTLGTFWKEMLFYSVQALYQ” the figure was 15400; with “ESEGDPEPQPAKSQSRRRQSRGRGRRGAESDSESVARSDVSATGGRRNRQRQK”, 43500; with “MASKDPVYDEKTGAPKLVAESDSSNVETGGGTPERTLHRQLKNRHIAMISIGG”, 44900. With “MILRIWGFHYLYMLVPGWYLCFRFSFFLFYFLFLFLLQFLHITLPFSCLVSFW” the figure was 46200. For “YFMVYFIFYRNLFARLRSFDQFALVQLMSSFWVCIWYPFSMTSLCHRVVQYFN”, the “transcriptional activation domain activity” value was found to be 69300.

For the sequence “KTVEEIWRISQGAVEGEEKGREREKAGLCVRACGASWHSQVLCAALVEVVGLS”, the “transcriptional activation domain activity” value was 41700. With “EPKAEEPAPRKSDEGQGKDKEQPKEIKEEEQQRGRRPDKGKARVVVQGFAAEE” the figure was 23200. As for “TSIRKIRAGESGGGESGGGESSGGESSGGGERGRRRRGAKEVEVRARGGGKAT”, the “transcriptional activation domain activity” value stood at 43700. With “TASTGTEARNAETTTRRVRSGIVNRRSHAKSRTGCRTCKRRRIKCDESRPSCR” the figure was 22400; with “PVKAIEAPLAEEKSEEKEAEPEKAEEAEEEVTEKPAAKKAKGGKKGAKGKKVK”, 46800; with “GHWSYFRNSSMILNFFYKNIIGIGVLFWFQIFCGWSTTYVFAYVYLLFWNVFW”, 51500. The figure for “AAPAAPADDGFQSVPGRNRGQREGGGNYRSRGGYRGEGRGRGGYRGEGRGRGR” is 37000. On to “DSAPTKRGRGRPKGSKNKNKSVASPSSPTSGAGSSAPRKRGRPPKAKPAESGA”, for which the “transcriptional activation domain activity” value is 38300.

As for “DNPSFLPLDIEQSSYDLSEDAMSYPIISTQSNRDCTQYDNTKISQILQSQLNP”, the “transcriptional activation domain activity” value was determined as 63900.

With “ELYGKPSMEAIFLLFAHYLYAGACAKGEHLIITTWDMYYEKLGFMLIFWNMAG”, the “transcriptional activation domain activity” value is 64300. The figure for “ESSSSTGAEEKKKKKKSSKDKKRKAEDEDDATDGAEEKKSKKVKASEDEPARK” is 14100; for “VLGQISTVLIQYLFNPAYDLLSYCFNWYLDQCIVYLLLSIILSAPTIGAFVYV” it is 46400. The figure for “AFAGVLLCYFFILFYFIFFFLFFSWLLLLVEYIVWDNLINLLFLVSCFSFFFA” is 55300.

For “ERRRKDQRKREKEEEERCHQEGREKKGEEHRREGDEERGRKEQETHASQEANG”, the “transcriptional activation domain activity” value is 29600. In the case of “AKRARKSSSSAAAKEEEGQPQQTAPAAAANGTAADEARADTTTASTKSDKKQK”, the “transcriptional activation domain activity” value was 28800. With “LISRLFAVKEVTKIQDINLEFDIACLWPLVPLSSWVMDYIVTVMQAWSLLFNR” the figure was 59400. The figure for “RRAVRPADADEREAVARVRPRARRRLGDVRDELDPRRGRRRVHGRIWGGVVRL” is 68000; for “QDEKHAEREGDTSSADGKEKSQDGDGGEKQKEGEGKPEKRNGVEAGAKNPAVK” it is 10600; for “KQPEPRTRSASPKRAASPAKPVAAEKPAAVAAAAEKPAEKVAEKAAEKPAPAV” it is 31400. The figure for “TSLRLVMFQITFLDLFFKAYGSNIARLDNNYGFPDKQLPERMVEEVKAIYKIN” is 56500.

With “MQGEETIASKTNKPRQRRAHTRSRTGCSECRNRRVRCDEQKPQCKNCINSQRI”, the “transcriptional activation domain activity” value was 24100.

With “LPNFLKLGLTTLYSAIGFDEWPSDAVKWAYYFSNIRMVRSWSSWDLYQHLVPW”, the “transcriptional activation domain activity” value came to 45500. For “MCVFHFLPWLLFPSPLISLFFVFFILFSFFVFFFLVPSSCPSFISFFPVSCLF”, the “transcriptional activation domain activity” value worked out at 38000. Take “DQKLPNPDDFANFEARIKLLSYDDRLSFYQRYCLKINMQVYYYVLSYILMLTS”: the “transcriptional activation domain activity” value worked out at 53300.

Regarding “STARKPRKKKEAEKTVDGAEDEITEETQKPKRKASTKRTSRKTTTDKEETTAT”, the “transcriptional activation domain activity” value amounted to 24200. The figure for “MGIGIHTFFYFWLLIFLFLFLFLFFSWFFFFVIVIIFFNYFIFLRAWMWIAGL” is 41600; for “IMYIICLTIAPSFLCGVLYVSLSRFIAALGHQYSLVPPWLISWVFIFGDFLSL” it is 62600. For the sequence “MGLWARFFCFVIVCFQITFLYCLLSFSPSFLDLQKIQPLFFTFFFFLLLSLFP”, the “transcriptional activation domain activity” value came out at 43200. As to “MLLTLLLLYILRRCAHTSYIFFSHSGFDFGHLIWGWVSCRLLTFWFLLYSSLL”, the “transcriptional activation domain activity” value came out at 33100. The figure for “GSSAEGEGDKEKTAVKRKRDSQVTGQQQQQQQQRADSSNRATSRKRRKTNKEG” is 60100; for “GVLMCYYSRSHNFDVAKRHFQRILNLLPLLKSTPNIFPLYGLIFSTMGLLVLI” it is 62600. The figure for “KSWYFPSLSFFFFSFLFSFLSFAFLSFFLFFSFPFSLLLLYLFLLGLALTADG” is 15600; for “MDGVGLGSHRGSGSSSSSSSSAADRAPRHSTRRKRGRESRGAVVVIAATNRPN” it is 39200. With “LQAAAALESNTADGEDTNMETEEDKSGADGRSVYVGNVGYRFAVLLASNQVDY”, the “transcriptional activation domain activity” value was 36600. The figure for “LALLTPGPSHVDPEYGTFQSLLFFFGLCTFLTTLTGIASSYIFWLYCSVLLLA” is 52100; for “GILRYCKIWLAWVQIHFGVHFFVLTIWYRMWNLHRLVVQQKLLSGWSYYLPII” it is 36800. The figure for “AAFSGEGDPWPGVAREIDENGENVGLAASRPAPAFLRVLTAVRVRVRIAFAFV” is 54500. On to “MHTSRAAWIHSKPADKAEAVAPHPHIAESGVGHSSHVGTHPKLSGDPNSPWRE”, for which the “transcriptional activation domain activity” value stood at 45900.

Take “MLIFYFYFYFYFYLNFFYFFSFVSGWFVLGKDVFVLFLFPFSLSGFSYFVFGY”: the “transcriptional activation domain activity” value was 46700. With “MIEMMAFRIALGFVGGLGLDGVWCGFFFPFKFVVFSFLHTLSISLGLDFFFLL” the figure was 91700; with “KFQERMMVLKEIKLISLGDVRKITYSRMGYTDWKIVVLGRMWNLRFFVATGWD”, 64400. On to “LSLYRLSFPASFSLFSSFPSCLVAFPFPLPLPLPLPPSCSPFLLLLLLLLFFS”, for which the “transcriptional activation domain activity” value stood at 51900. Consider “MMAEGERPLATMCSVLSVCYVCVRLVLSNLIWIVLCSSPRPLPMALLSLLAHR”, for which the “transcriptional activation domain activity” value is 32900. With “VRSLTLEIYFNWLQIIFDSKLQDEFSKLLNYNLITKVDLIINLLESIALRFSD” the figure was 51000; with “GFMLIFWNLAGVPLSYCHCSIFVANHLDTITSWGGDFRLPLLVLLFTSYLFMY”, 42000; with “EDEEDLSSKPRCQRCRKSKKGCDRQRPCQRCKDAGLSADQCVSEDEGNGRKGR”, 15700. For “SDSEEEDDAEKEDEEEEQRPKKTVKVEEVVKKAFGADGATVWVGQLSYEATSD”, the “transcriptional activation domain activity” value turned out to be 32500.

As for “SCIVLYACSKIIIYLFLMEKVYVVTAVGATRANFMLYRINLSLLIPYVGIFAL”, the “transcriptional activation domain activity” value came to 52300. In the case of “DGDLDEAVYKGFEYKHLGNLAYIGNAAVFDLNGWSIGGGLIFVYLWRSVYFAQ”, the “transcriptional activation domain activity” value stood at 67800. With “GVFCLALWVPATGFELVSFFALLVGAIFGVFWMVAGLKNLQSSLSISWLVIAL” the figure was 65200. With “DDTGEEEQPPPASNSSAGVATSTTVVPQQLPARYRLRAFISHKGPSVHSGHYV” the figure was 29800; with “IWSFVILLRETVLCGSIVLAISATSDYFYYGLWTFPPYQWLNFNLTQSLAVFY”, 66800. Take “MAPPTSKTTPDSPDSGAPRKRRRTALACEECRDRKRKCDGVKPVCGACKTRPA”: the “transcriptional activation domain activity” value was 21900.

Regarding “MLSFVIVRLLTSHLQLVWRAALLLCKPLCICPLQFLYDRESHYNLLCNEAVVF”, the “transcriptional activation domain activity” value came to 68500. Take “MGCDVVGCDVVGFLFFLFFFILFLGLLVCWLAGWHVCWVFWFLVFVLGGLGGL”: the “transcriptional activation domain activity” value turned out to be 48200. For “EDGESTKTKDAGRKRKRSTGEGEREDKGADGTKENKKKRKLASEKEKESDKEN”, the “transcriptional activation domain activity” value is 27400. Regarding “YDLLSVKDLHIQDRLLSARIVLSDISFLKRILMLLGVPDGLSSRLVSHLWCAV”, the “transcriptional activation domain activity” value is 58400. With “KANSKAKLSKKDESSDESESDSEDEKPAPKANGKQVCCAVPLAIFFIALLTKY” the figure was 57400; with “QTDPEKKRVWENKILETLERRPSKKCDYILLRSEQLVGTALIVLVKSELTSVI”, 54900.
